Laboratory results from patent US20250074980A1 (BRIGHAM AND WOMEN S HOSPITAL, published 2025).

T1: His-tagged CEACAM1 (human, UniProt P13688 35-428)
T1 construct: 45 kDa SPR analyte; also called CEACAM1-HIS; CEACAM1 analyte
T1 sequence: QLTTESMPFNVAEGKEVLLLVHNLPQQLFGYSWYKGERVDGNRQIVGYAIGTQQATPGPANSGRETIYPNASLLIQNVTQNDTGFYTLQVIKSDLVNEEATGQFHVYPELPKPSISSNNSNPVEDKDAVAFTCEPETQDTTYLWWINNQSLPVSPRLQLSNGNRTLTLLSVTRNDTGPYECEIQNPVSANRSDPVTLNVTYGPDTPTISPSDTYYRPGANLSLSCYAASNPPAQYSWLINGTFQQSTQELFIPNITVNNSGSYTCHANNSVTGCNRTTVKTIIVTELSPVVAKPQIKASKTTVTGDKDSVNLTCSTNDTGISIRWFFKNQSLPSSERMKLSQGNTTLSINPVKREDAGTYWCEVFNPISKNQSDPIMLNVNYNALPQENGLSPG


Target: T1, His-tagged CEACAM1
Assay: SPR single-cycle, supernatant IgG captured
Protocol: In order to assess the binding of the humanized, affinity matured reformatted lead IgGs, single-cycle kinetics analysis was performed on crude supernatants using a Biacore T200 running Biacore T200 Control Software V2.0.1 and Biacore T200 Evaluation Software V3.0. Antibodies were diluted in HBS-P+ to a final concentration of 0.5 μg/ml. At the start of each cycle, antibodies were loaded onto Fc2, Fc3 and Fc4 of the Protein A chip. IgGs were captured at a flow rate of 10 μl/min to give an immobilisation level (RL) of ˜100 RU (a level calculated to obtain a Rₘₐₓ of ˜50-150 RU once the analyte is bound). The surface was then allowed to stabilize. Single-cycle kinetics data was obtained with CEACAM1 as the analyte at a flow rate of 80 μl/min to minimize any potential mass transfer effects. Multiple repeats with the parent (VH1/Vκ8 S29A) antibody were performed to check the stability of the surface and analyte over the kinetic cycles. The signal from the reference channel Fc1 (no antibody) was subtracted from that of Fc2, Fc3 and Fc4 to correct for differences in non-specific binding to the reference surface. A three point, two-fold dilution range from 70 nM to 280 nM CEACAM1 without regeneration between each concentration was used. The signal from each antibody blank run (no CEACAM1) was subtracted to correct for differences in surface stability. The association phase for the three injections of increasing concentrations of CEACAM1 was monitored for 80 seconds each time and a single dissociation phase was measured for 150 seconds following the last injection of CEACAM1. Regeneration of the Protein A surface was conducted using two injections of 10 mM glycine-HCL pH 1.5 followed by a stabilization period of 250 seconds.

Kd [µM] | koff [s⁻¹] | kon [M⁻¹ s⁻¹] | relative KD to parent | Binder
0.43 | 0.039 | 93000 | 1.3 | CP08A03/Vκ8 S29A (antibody, IgG4, V domains shown, IgG4 (S241P), kappa) VH: EVQLLESGGGLVQPGGSLRLSCAASGFIFNNHAISWVRQAPGKGLEWVATISSGGTYTYYPDSVKGRFTISRDNSKNTLYLQMNSLKAEDTAMYYCARHDFDYDAAWFAYWGQGTLVTVSS VL: EIVLTQSPATLSLSPGERATLSCRANSAVSYMYWYQQKPGQAPRPWIYLTSNRATGVPARFSGSGSGTDYTLTISSLEPEDFAVYYCQQWSSNPPTFGQGTKLEIK
0.44 | 0.075 | 170000 | 1.3 | CP08A06/Vκ8 S29A (antibody, IgG4, V domains shown, IgG4 (S241P), kappa) VH: EVQLLESGGGLVQPGGSLRLSCAASGYSFSSHGMSWVRQAPGKGLEWVATISSGGTYTYYPDSVKGRFTISRDNSKNTLYLQMNSLKAEDTAMYYCARHDFDYDAAWFAYWGQGTLVTVSS VL: EIVLTQSPATLSLSPGERATLSCRANSAVSYMYWYQQKPGQAPRPWIYLTSNRATGVPARFSGSGSGTDYTLTISSLEPEDFAVYYCQQWSSNPPTFGQGTKLEIK
0.42 | 0.044 | 110000 | 1.3 | CP08B06/Vκ8 S29A (antibody, IgG4, V domains shown, IgG4 (S241P), kappa) VH: EVQLLESGGGLVQPGGSLRLSCAASGFSFNSHAISWVRQAPGKGLEWVATISSGGTYTYYPDSVKGRFTISRDNSKNTLYLQMNSLKAEDTAMYYCARHDFDYDAAWFAYWGQGTLVTVSS VL: EIVLTQSPATLSLSPGERATLSCRANSAVSYMYWYQQKPGQAPRPWIYLTSNRATGVPARFSGSGSGTDYTLTISSLEPEDFAVYYCQQWSSNPPTFGQGTKLEIK
1.2 | 0.26 | 220000 | 0.5 | CP08C04/Vκ8 S29A (antibody, IgG4, V domains shown, IgG4 (S241P), kappa) VH: EVQLLESGGGLVQPGGSLRLSCAASGFTFSSHGMSWVRQAPGKGLEWVATISSGGTYTYYPDSVKGRFTISRDNSKNTLYLQMNSLKAEDTAMYYCARHDFDYDAAWFAYWGQGTLVTVSS VL: EIVLTQSPATLSLSPGERATLSCRANSAVSYMYWYQQKPGQAPRPWIYLTSNRATGVPARFSGSGSGTDYTLTISSLEPEDFAVYYCQQWSSNPPTFGQGTKLEIK
0.36 | 0.069 | 200000 | 1.6 | CP08B03/Vκ8 S29A (antibody, IgG4, V domains shown, IgG4 (S241P), kappa) VH: EVQLLESGGGLVQPGGSLRLSCAASGFTFTAHAISWVRQAPGKGLEWVATISSGGTYTYYPDSVKGRFTISRDNSKNTLYLQMNSLKAEDTAMYYCARHDFDYDAAWFAYWGQGTLVTVSS VL: EIVLTQSPATLSLSPGERATLSCRANSAVSYMYWYQQKPGQAPRPWIYLTSNRATGVPARFSGSGSGTDYTLTISSLEPEDFAVYYCQQWSSNPPTFGQGTKLEIK
1.2 | 0.1 | 82000 | 0.5 | CP08C01/Vκ8 S29A (antibody, IgG4, V domains shown, IgG4 (S241P), kappa) VH: EVQLLESGGGLVQPGGSLRLSCAASGYSFSNHGMSWVRQAPGKGLEWVATISSGGTYTYYPDSVKGRFTISRDNSKNTLYLQMNSLKAEDTAMYYCARHDFDYDAAWFAYWGQGTLVTVSS VL: EIVLTQSPATLSLSPGERATLSCRANSAVSYMYWYQQKPGQAPRPWIYLTSNRATGVPARFSGSGSGTDYTLTISSLEPEDFAVYYCQQWSSNPPTFGQGTKLEIK
0.61 | 0.059 | 96000 | 0.9 | CP08B11/Vκ8 S29A (antibody, IgG4, V domains shown, IgG4 (S241P), kappa) VH: EVQLLESGGGLVQPGGSLRLSCAASGFTFTNHGMSWVRQAPGKGLEWVATISSGGTYTYYPDSVKGRFTISRDNSKNTLYLQMNSLKAEDTAMYYCARHDFDYDAAWFAYWGQGTLVTVSS VL: EIVLTQSPATLSLSPGERATLSCRANSAVSYMYWYQQKPGQAPRPWIYLTSNRATGVPARFSGSGSGTDYTLTISSLEPEDFAVYYCQQWSSNPPTFGQGTKLEIK
0.47 | 0.081 | 170000 | 1.2 | CP08F07/Vκ8 S29A (antibody, IgG4, V domains shown, IgG4 (S241P), kappa) VH: EVQLLESGGGLVQPGGSLRLSCAASGFTFTDHAISWVRQAPGKGLEWVATISSGGTYTYYPDSVKGRFTISRDNSKNTLYLQMNSLKAEDTAMYYCARHDFDYDAAWFAYWGQGTLVTVSS VL: EIVLTQSPATLSLSPGERATLSCRANSAVSYMYWYQQKPGQAPRPWIYLTSNRATGVPARFSGSGSGTDYTLTISSLEPEDFAVYYCQQWSSNPPTFGQGTKLEIK
0.41 | 0.049 | 120000 | 1.4 | CP08B04/Vκ8 S29A (antibody, IgG4, V domains shown, IgG4 (S241P), kappa) VH: EVQLLESGGGLVQPGGSLRLSCAASGFIFSSHGMSWVRQAPGKGLEWVATISSGGTYTYYPDSVKGRFTISRDNSKNTLYLQMNSLKAEDTAMYYCARHDFDYFPAWFALWGQGTLVTVSS VL: EIVLTQSPATLSLSPGERATLSCRANSAVSYMYWYQQKPGQAPRPWIYLTSNRATGVPARFSGSGSGTDYTLTISSLEPEDFAVYYCQQWSSNPPTFGQGTKLEIK
2 | 0.17 | 86000 | 0.3 | CP08D11/Vκ8 S29A (antibody, IgG4, V domains shown, IgG4 (S241P), kappa) VH: EVQLLESGGGLVQPGGSLRLSCAASGYSFSAHGMSWVRQAPGKGLEWVATISSGGTYTYYPDSVKGRFTISRDNSKNTLYLQMNSLKAEDTAMYYCARHDFDYDAAWFAYWGQGTLVTVSS VL: EIVLTQSPATLSLSPGERATLSCRANSAVSYMYWYQQKPGQAPRPWIYLTSNRATGVPARFSGSGSGTDYTLTISSLEPEDFAVYYCQQWSSNPPTFGQGTKLEIK
0.3 | 0.043 | 140000 | 1.9 | CP08D01/Vκ8 S29A (antibody, IgG4, V domains shown, IgG4 (S241P), kappa) VH: EVQLLESGGGLVQPGGSLRLSCAASGFTFNAHGMSWVRQAPGKGLEWVATISSGGTYTYYPDSVKGRFTISRDNSKNTLYLQMNSLKAEDTAMYYCARHDFDYDAAWFAYWGQGTLVTVSS VL: EIVLTQSPATLSLSPGERATLSCRANSAVSYMYWYQQKPGQAPRPWIYLTSNRATGVPARFSGSGSGTDYTLTISSLEPEDFAVYYCQQWSSNPPTFGQGTKLEIK
1.3 | 0.073 | 57000 | 0.4 | CP08A08/Vκ8 S29A (antibody, IgG4, V domains shown, IgG4 (S241P), kappa) VH: EVQLLESGGGLVQPGGSLRLSCAASGFIFTNHGMSWVRQAPGKGLEWVATISSGGTYTYYPDSVKGRFTISRDNSKNTLYLQMNSLKAEDTAMYYCARHDFDYDAAWFAYWGQGTLVTVSS VL: EIVLTQSPATLSLSPGERATLSCRANSAVSYMYWYQQKPGQAPRPWIYLTSNRATGVPARFSGSGSGTDYTLTISSLEPEDFAVYYCQQWSSNPPTFGQGTKLEIK
0.61 | 0.044 | 72000 | 0.9 | CP08B01/Vκ8 S29A (antibody, IgG4, V domains shown, IgG4 (S241P), kappa) VH: EVQLLESGGGLVQPGGSLRLSCAASGFTFSAHAMSWVRQAPGKGLEWVATISSGGTYTYYPDSVKGRFTISRDNSKNTLYLQMNSLKAEDTAMYYCARHDFDYDAAWFAYWGQGTLVTVSS VL: EIVLTQSPATLSLSPGERATLSCRANSAVSYMYWYQQKPGQAPRPWIYLTSNRATGVPARFSGSGSGTDYTLTISSLEPEDFAVYYCQQWSSNPPTFGQGTKLEIK
